# Assay results as given in paper PMC4638040 (2015).
# B1: GST-IRF-1 (pDEST-15-codon optimized IRF-1) [not stated] / Carboxy-terminus of Hsc70-interacting protein (CHIP), His-tagged, wild type [human] (parent complex)
# chain 1: MPITRMRMRPWLEMQINSNQIPGLIWINKEEMIFQIPWKHAAKHGWDINKDACLFRSWAIHTGRYKAGEKEPDPKTWKANFRCAMNSLPDIEEVKDQSRNKGSSAVRVYRMLPPLTKNQRKERKSKSSRDAKSKAKRKSCGDSSPDTFSDGLSSSTLPDDHSSYTVPGYMQDLEVEQALTPALSPCAVSSTLPDWHIPVEVVPDSTSDLYNFQVSPMPSTSEATTDEDEEGKLPEDIMKLLEQSEWQPTNVDGKGYLLNEPGVQPTSVYGDFSCKEEPEIDSPGGDIGLSLQRVFTDLKNMDATWLDSLLTPVRLPSIQAIPCAP
# chain 2: MKGKEEKEGGARLGAGGGSPEKSPSAQELKEQGNRLFVGRKYPEAAACYGRAITRNPLVAVYYTNRALCYLKMQQHEQALADCRRALELDGQSVKAHFFLGQCQLEMESYDEAIANLQRAYSLAKEQRLNFGDDIPSALRIAKKKRWNSIEERRIHQESELHSYLSRLIAAERERELEECQRNHEGDEDDSHVRAQQACIEAKHDKYMADMDELFSQVDEKRKKRDIPDYLCGKISFELMREPCITPSGITYDRKDIEEHLQRVGHFDPVTRSPLTQEQLIPNLAMKEVIDAFISENGWVEDY
# B2: Carboxy-terminus of Hsc70-interacting protein (CHIP), untagged, wild type [human] / His-tagged UbcH5a [not stated] (parent complex)
# chain 1: B1 chain 2
# chain 2: not shown
# B3: Hsp70 C-terminal peptide GPTIEEVD (residues 634-641), biotin-SGSG at the N terminus [modified: biotin at the N terminus; biotin at the N terminus] [not stated] / Carboxy-terminus of Hsc70-interacting protein (CHIP), His-tagged, wild type … (parent complex)
# chain 1: SGSGGPTIEEVD
# chain 2: B1 chain 2
# B4: Carboxy-terminus of Hsc70-interacting protein (CHIP), His-tagged, wild type [human] / GST-IRF-1 (pDEST-15-codon optimized IRF-1) [not stated] (parent complex)
# chain 1: B1 chain 2
# chain 2: B1 chain 1
# Variants of: B1
# Test: microtitre-well binding assay; lower panel; value read at the highest dose, about 130 ng GST-IRF-1; His-CHIP coated on wells, GST-IRF-1 in the mobile phase; parent: 120; read off a plot
row,Variant,response [RLU]
1,chain 2 K30A,~110

# Variants of: B2
# Test: AlphaScreen; value read at the highest dose, 100 ng CHIP; untagged CHIP on protein A acceptor beads through anti-CHIP N-term pAb, His-UbcH5a on Nickel-chelate donor beads; parent: 2.3e+04; read off a plot
row,Variant,response [AlphaScreen Units]
1,chain 1 K30A,~9000

# Variants of: B3
# Test: microtitre-well binding assay (streptavidin-HRP detection); value read at the highest dose, 20 uM Hsp70 wt peptide; His-CHIP coated on wells, biotin peptide in the mobile phase; parent: 45; read off a plot
row,Variant,response [RLU]
1,chain 2 K30A,~7

# Variants of: B4
# Test: microtitre-well binding assay (luminometer, anti-CHIP antibody); upper panel; value read at the highest dose, about 130 ng CHIP; GST-IRF-1 immobilized, His-CHIP in the mobile phase; parent: 18; read off a plot
row,Variant,response [RLU]
1,chain 1 K30A,~12
